Results taken from US20080292619.

Target: recombinant human IGF-BP3 (GT2675 produced by GT) (UniProt P17936)
Sequence (P17936 28-291): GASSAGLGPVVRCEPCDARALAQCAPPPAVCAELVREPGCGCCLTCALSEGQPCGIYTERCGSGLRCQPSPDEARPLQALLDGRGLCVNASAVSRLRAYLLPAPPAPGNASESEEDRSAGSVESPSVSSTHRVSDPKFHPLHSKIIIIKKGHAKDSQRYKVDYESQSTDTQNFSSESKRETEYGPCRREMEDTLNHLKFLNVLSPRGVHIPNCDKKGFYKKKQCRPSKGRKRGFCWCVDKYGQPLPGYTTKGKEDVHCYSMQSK

human meltrin α-STFLAG after cleavage of the prodomain with thrombin (mature meltrin α having the prodomain deleted, 68 kDa)
digestion of rhIGF-BP3 by meltrin α (SDS-PAGE and western blotting of rhIGF-BP3): the band corresponding to rhIGF-BP3 disappeared in the case of the meltrin α having the prodomain cleaved
